Positions count from the first letter of the chain named. Where two headings read alike, the source gives them in different places. Each block holds one binder with its values, some of them ahead of it. Ends that are not written are not given here.
Key:
Human CXCR2 [1] = molecular target: T1, Human CXCR2 (human, UniProt P25025 1-360); assay: immunoluminescence, HEK-293T with wild type receptor, 1.0 ug/ml, anti-myc detection
T1 construct: Some cell lines carry an N-terminal 3xHA tag; also called hCXCR2; huCXCR2
T1 sequence: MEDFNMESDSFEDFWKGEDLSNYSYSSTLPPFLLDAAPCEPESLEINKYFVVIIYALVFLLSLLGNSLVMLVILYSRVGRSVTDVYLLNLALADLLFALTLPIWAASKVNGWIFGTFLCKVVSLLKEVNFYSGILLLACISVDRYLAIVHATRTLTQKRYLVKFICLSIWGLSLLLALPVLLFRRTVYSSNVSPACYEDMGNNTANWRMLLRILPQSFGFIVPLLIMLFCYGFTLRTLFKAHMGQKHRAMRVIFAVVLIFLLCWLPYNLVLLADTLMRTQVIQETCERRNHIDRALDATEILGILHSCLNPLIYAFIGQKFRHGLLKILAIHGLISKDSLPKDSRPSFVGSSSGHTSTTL

Human CXCR2 [2] = molecular target: T1, Human CXCR2; assay: cell-based or functional assay
Cynomolgus CXCR2 [3] = molecular target: T2, Cynomolgus CXCR2 (cynomolgus, UniProt Q28519 3-353 (rhesus entry)); assay: cell-based or functional assay
T2 chain: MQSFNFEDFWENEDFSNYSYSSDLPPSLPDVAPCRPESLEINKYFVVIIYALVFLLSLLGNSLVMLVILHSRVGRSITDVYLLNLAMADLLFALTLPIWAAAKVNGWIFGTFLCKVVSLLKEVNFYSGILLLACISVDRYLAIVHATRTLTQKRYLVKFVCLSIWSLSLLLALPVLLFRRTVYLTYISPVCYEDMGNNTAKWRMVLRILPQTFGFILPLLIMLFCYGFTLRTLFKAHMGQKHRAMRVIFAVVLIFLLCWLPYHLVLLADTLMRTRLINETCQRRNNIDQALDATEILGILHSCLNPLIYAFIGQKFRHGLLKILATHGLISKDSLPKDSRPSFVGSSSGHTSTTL

Human CXCR2 [4] = molecular target: T1, Human CXCR2; assay: FACS hGro-α competition
Cynomolgus CXCR2 [5] = molecular target: T2, Cynomolgus CXCR2; assay: FACS hGro-α competition
Human CXCR2 [6] = molecular target: T1, Human CXCR2; assay: FACS hGro-α competition; remark: listed apart in the source
Cynomolgus CXCR2 [7] = molecular target: T2, Cynomolgus CXCR2; assay: FACS hGro-α competition
Human CXCR2 [8] = molecular target: T1, Human CXCR2; assay: cell-based or functional assay; remark: listed apart in the source
Cynomolgus CXCR2 [9] = molecular target: T2, Cynomolgus CXCR2; assay: cell-based or functional assay
Human CXCR2 [10] = molecular target: T1, Human CXCR2; assay: FACS, periplasmic extract vs FMAT Blue Gro-α
Method in brief: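 Cells (2×10⁵) preincubated 30 min at 4 °C with ½-diluted periplasmic extracts in PBS/10% FBS. An equal volume of 6 nM FMAT Blue-labelled human Gro-α was then added for another 30 min at 4 °C in the dark. After washing, dead cells were excluded with propidium iodide and binding read by flow cytometry.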

Human 1to19 peptide [11] = molecular target: T3, Human 1to19 peptide (human); assay: peptide ELISA of Table 8 (ratio 0.6)
T3 construct: First 19 N-terminal amino acids of human CXCR2, captured on neutravidin; also called human CXCR2 1 to19 peptide; 1-19 Nter peptide
T3 peptide: MEDFNMESDSFEDFWKGED-biotin

Human CXCR2 [12] = molecular target: T1, Human CXCR2; assay: cell-based or functional assay; remark: listed apart in the source
Human CXCR2 [13] = molecular target: T1, Human CXCR2; assay: FACS hGro-α competition; remark: listed apart in the source
Cynomolgus CXCR2 [14] = molecular target: T2, Cynomolgus CXCR2; assay: FACS hGro-α competition
Human 1to19 peptide [15] = molecular target: T3, Human 1to19 peptide; assay: ELISA, periplasmic extract on biotinylated peptide
Procedure: In another setup, periplasmic extracts were analyzed for binding to human 1 to 19 peptide by ELISA. MaxiSorb plates (Nunc, 430341) were coated for two hours with neutravidin followed by one hour blocking (PBS, 1% casein). Then 100 nM biotinylated human 1 to 19 peptide was added to these plates for one hour (PBS, 0.1% casein, 0.05% tween20) followed by one hour incubation with 10-fold dilutions of periplasmic extracts. Unbound periplasmic extracts were washed away (PBS supplemented with 0.05% tween20) and bound Nanobodies were detected using mouse anti-myc (Roche, 11667149001) followed by rabbit anti-mouse-HRP conjugate (Dakocytomation, P0260). Table 8 summarizes the ratios of the binding signals of anti-CXCR2Nanobodies over an irrelevant control Nanobody.

Human CXCR2 [16] = molecular target: T1, Human CXCR2; assay: FACS competition vs 3 nM FMAT-Blue Gro-α
Procedure: (§1) Purified monovalent anti-CXCR2Nanobodies were titrated against 3 nM FMAT-Blue-labeled Gro-α in the FACS ligand competition assay on human and cynomolgus CXCR2 (Table 10). On human CXCR2, blocking potencies range between double digit nM and sub-nM whereas on cynomolgus CXCR2, they range between single and double digit nM.

Cynomolgus CXCR2 [17] = molecular target: T2, Cynomolgus CXCR2; assay: FACS competition vs 3 nM FMAT-Blue Gro-α
Procedure: as §1

Human CXCR2 [18] = molecular target: T1, Human CXCR2; assay: cell-based or functional assay; remark: listed apart in the source
Cynomolgus CXCR2 [19] = molecular target: T2, Cynomolgus CXCR2; assay: cell-based or functional assay
Human CXCR2 [20] = molecular target: T1, Human CXCR2; assay: cell-based or functional assay; remark: listed apart in the source
Cynomolgus CXCR2 [21] = molecular target: T2, Cynomolgus CXCR2; assay: cell-based or functional assay
Human CXCR2 [22] = molecular target: T1, Human CXCR2; assay: cell-based or functional assay; remark: listed apart in the source
Cynomolgus CXCR2 [23] = molecular target: T2, Cynomolgus CXCR2; assay: cell-based or functional assay
Human CXCR2 [24] = molecular target: T1, Human CXCR2; assay: immunoluminescence, HEK-293T with wild type receptor, 2.0 ug/ml, anti-myc detection

- Signal:Background (Human CXCR2 [1]): 6.9 ratio
- FLIPR hGro-α IC50 (Human CXCR2 [2]): 0.066 µM
- FLIPR hGro-α IC50 (Cynomolgus CXCR2 [3]): 0.35 µM
- IC50 (Human CXCR2 [4]): 0.015 µM
- IC50 (Cynomolgus CXCR2 [5]): 0.062 µM
B1: CXCR20061 (VHH)
VHH: EVQLLESGGGLVQPGGSLRLSCAASGSIVRINTMGWYRQAPGKQRELVADITSGGNINYADSVKGRFTISRDNSKNTVYLQMNSLRPEDTAVYYCNAEIVVLVGVWTQRARTGNYWGQGTLVTVSS
notes: also called RD-HBC793; RDHBC 793

- Signal:Background (Human CXCR2 [1]): 13 ratio
- IC50 (Human CXCR2 [6]): 0.0008 µM
- IC50 (Cynomolgus CXCR2 [7]): 0.0028 µM
- FLIPR hGro-α IC50 (Human CXCR2 [8]): 0.01 µM
- FLIPR hGro-α IC50 (Cynomolgus CXCR2 [9]): 0.45 µM
B2: CXCR20079 (VHH)
VHH: EVQLLESGGGLVQPGGSLRLSCAASGSTFDFKVMGWYRQAPGKQREGVAAIRLSGNRHYAESVKGRFTISRANSKNTVYLQMNSLRPEDTAVYYCKVNIRGQDYWGQGTLVTVSS
notes: also called RD-HBC792; RDHBC 792

- FACS Gro-α competition (% inhibition) (Human CXCR2 [10]): 80.1%
- binding result (Human 1to19 peptide [11]): no binding
- IC50 (M) at 5 nM GROα (inhibition of GRO-α, FIG. 2) (Human CXCR2 [12]): 3.03e-08 M
- IC50 (M) at 15 nM GROα (inhibition of GRO-α, FIG. 2) (Human CXCR2 [12]): 4.04e-08 M
- IC50 (M) at 45 nM GROα (inhibition of GRO-α, FIG. 2) (Human CXCR2 [12]): 7.54e-08 M
- IC50 (M) at 150 nM GROα (inhibition of GRO-α, FIG. 2) (Human CXCR2 [12]): 1.87e-07 M
- IC50 (Human CXCR2 [13]): 0.01 µM
- IC50 (Cynomolgus CXCR2 [14]): 0.022 µM
- ratio of binding signal relative to blank control (Human 1to19 peptide [15]): 0.6 ratio
- % inhibition of max (Human CXCR2 [16]): 92.4%
- IC50 (Human CXCR2 [16]): 0.00896 µM
- % inhibition of max (Cynomolgus CXCR2 [17]): 83.5%
- IC50 (Cynomolgus CXCR2 [17]): 0.0148 µM
- FLIPR hGro-α IC50 (Human CXCR2 [18]): 0.035 µM
- FLIPR hGro-α IC50 (Cynomolgus CXCR2 [19]): 0.15 µM
- FLIPR % inhibition max (Human CXCR2 [20]): 100%
- FLIPR IC50 (GRO-α induced calcium release) (Human CXCR2 [20]): 0.0443 µM
- [35S]GTPγS % inhibition max (GRO-α) (Human CXCR2 [20]): 100%
- [35S]GTPγS IC50 (GRO-α) (Human CXCR2 [20]): 0.0647 µM
- FLIPR % inhibition max (Cynomolgus CXCR2 [21]): 100%
- FLIPR IC50 (GRO-α induced calcium release) (Cynomolgus CXCR2 [21]): 0.158 µM
- Human Chemotaxis IC50 (GROα) (Human CXCR2 [22]): 0.0093 µM
- Human WBSC IC50 (rhGROα) (Human CXCR2 [22]): 0.0094 µM
- Cynomologus WBSC IC50 (rhGROα) (Cynomolgus CXCR2 [23]): > 100 nM
B3: 163E3 (VHH)
VHH: EVQLVESGGGLVQPGGSLRLSCVASGRIFSSNAMGWFRQAPGKEREFVAAITWRSGGSAYYADSAKGRFTISRDNAKNTVYLQMNSLKPEDTAVYYCAAGGSSWLSFPPDYWGQGTQVTVSS
notes: Tested as periplasmic extract (pAX50) and as purified His6-tagged protein (pAX100); also called 163E03; not shown: C-terminal c-myc tag and His6 tag coded by the vector

- IC50 (Human CXCR2 [13]): 0.016 µM
- IC50 (Cynomolgus CXCR2 [14]): 0.025 µM
- FLIPR hGro-α IC50 (Human CXCR2 [18]): 0.031 µM
- FLIPR hGro-α IC50 (Cynomolgus CXCR2 [19]): 0.1 µM
- Signal:Background (Human CXCR2 [24]): 20 ratio
B4: CXCR20076 (VHH)
VHH: B3 VHH with V5L, V23A, A65V, A76S, K88R, Q117L
notes: also called RD-HBC794; MAb 794

Reference: patent US20130330346A1 (Novartis, published 2013)
